Experimental data taken from patent publication US20250333515A1 (VOR BIOPHARMA, published 2025).

T1: CLL-1 on the surface of CLL-1-positive AML cell lines (HL-60 WT, U937) (human, UniProt Q5QGZ9 1-265)
T1 construct: whole, on cells; also called HL-60 WT cells; U937 cells
T1 sequence (looked up): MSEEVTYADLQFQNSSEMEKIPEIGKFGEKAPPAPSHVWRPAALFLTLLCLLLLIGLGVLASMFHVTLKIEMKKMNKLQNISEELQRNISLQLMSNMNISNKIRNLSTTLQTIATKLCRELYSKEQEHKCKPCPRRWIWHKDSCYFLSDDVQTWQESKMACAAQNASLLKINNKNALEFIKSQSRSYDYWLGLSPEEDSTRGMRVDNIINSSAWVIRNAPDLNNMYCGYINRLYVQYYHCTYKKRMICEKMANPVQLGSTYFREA

T2: biotinylated recombinant CLL-1 protein (UniProt Q5QGZ9 65-265, limits assumed, biotinylated (site not stated))
T2 construct: also called CLEC12A
T2 sequence (looked up): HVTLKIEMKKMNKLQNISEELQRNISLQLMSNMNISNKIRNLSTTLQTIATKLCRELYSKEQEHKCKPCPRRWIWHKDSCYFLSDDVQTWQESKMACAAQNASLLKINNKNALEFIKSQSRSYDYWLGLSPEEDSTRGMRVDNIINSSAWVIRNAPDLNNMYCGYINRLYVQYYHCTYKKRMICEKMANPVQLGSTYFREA


What was measured:
[1] = biological target: T1, CLL-1 on the surface of CLL-1-positive …; test: flow cytometry, HL-60 WT, 200 nM; secondary only 5600
Method: (§1) HL60 WT, U937, or HL-60 CLL-1 knockout (KO) control cells were counted, washed in PBS and mixed with 1 ml of Fixable Viability dye eFluor 780 (diluted at 1:1000 in PBS) then incubated at room temperature for 10 minutes to distinguish Live/Dead cells. Subsequently the cells were washed once with FACS Buffer (PBS with 2% FBS) and incubated with human TruStain FcX™ (Fc block diluted at 1:10 in FACS buffer) at room temperature for 5 minutes. Fc blocked cells were stained with 50 μL of the primary CLL-1 antibody (at 200 nM concentrations) and incubated at 4° C. for 30 minutes in the dark. Cells were subsequently stained with 100 μL of secondary antibody (AF488 Rabbit anti-FLAG-tag diluted at 1:1000) incubated at 4° C. for 30 minutes in the dark. Cells were washed and flow cytometric analysis was performed using flow cytometry and data analysis was performed using FlowJo.

[2] = biological target: T1, CLL-1 on the surface of CLL-1-positive …; test: multi-point flow cytometry on HL-60 WT cells, FLAG-tagged binder, anti-FLAG AlexaFluor 488
Method: Target cell staining was assessed relative to control samples comprising cells stained with secondary antibodies only (see FIG. 6). Multi-point FACS via flow cytometry was performed to assess dose-depending binding of CLL-1 antibody binders to the cell surface of HL-60 WT cells. Un-fixed, un-permeabilized cells were incubated with various concentrations of purified FLAG-tagged anti-CLL-1 antibody clones and cell-surface binding was detected by subsequent incubation in the presence of rabbit anti-FLAG tag antibody AlexaFluor 488-conjugate antibody (R&D Systems).

[3] = biological target: T2, biotinylated recombinant CLL-1 protein; test: ELISA; biotinylated CLL-1 on neutravidin plate, FLAG-tagged binder, anti-FLAG HRP
Method: Dose-depending binding activities were analyzed by ELISA. COSTAR® microtiter plates were coated with 1 μg/mL neutravidin protein. Following washing, neutravidin-coated wells were seeded with 100 nM of biotinylated recombinant CLL-1 protein. Following washing, purified FLAG-tagged CLL-1 antibody binders were added to the wells and subsequently detected by mouse anti-FLAG tag HRP conjugate (Sigma).

[4] = biological target: T1, CLL-1 on the surface of CLL-1-positive …; test: flow cytometry, U937, 200 nM; last table names out of step
Method: as §1

Binder | Geometric Mean : B530-H [1] | EC50 [2] [nM] | EC50 [3] [nM] | Geometric Mean : B530-H [4]
Anti-CLL-1 Binder Clone 40 (scFv, scFv (VL-linker-VH); not shown: FLAG tag) scFv: QSVLTQPPSVSAAPGQKVTISCSGSSSNIGNNYVSWYQQLPGTAPKLLIYDNNKRPSGIPDRFSGSESGTSATLGITGLQTGDEADYYCGTWDSSLSAWVFGGGTQLIILGGGGSGGGGSGGGGSQVQLQQSGPGLVKPSQTLSLTCAISGDSVSSNSAAWNWIRQSPSRGLEWLGRTHYRSKWYNDYAVSVKSRITISADTSKNQFSLQLNSVTPEDTAVYYCARDRYTVRPDAFDIWGQGTTVTVSS | 23100 | 11.4 | 0.5 | 
Anti-CLL-1 Binder Clone 6 (scFv, scFv (VL-linker-VH); not shown: FLAG tag) scFv: QSVLTQPPSVSAAPGQKVSIFCSGGSSNIGKNYVSWYQQLPGTAPKLLIYENQHRPSGIPDRFSGSKSGTSATLGITGLQTGDEADYYCATWDDSLSAGVFGGGTELTVLGGGGSGGGGSGGGGSQLVQSGAEVRKPGESLKISCKGSGYSFTSYWIGWVRQMPGKGLEWMGFIYPGDSDTRYSPSFQGQVTISADKSISTAYLQRSSLKASDTAMYYCARLGGYSGYDSEVFYLDYWGQGTTVTVSS | 9390 | 59 | 0.9 | 34300
Anti-CLL-1 Binder Clone 38 (scFv, scFv (VL-linker-VH); not shown: FLAG tag) scFv: DIQMTQSPSTLSASVGDRVTITCRASQSISSWLAWYQQKPGKAPKLLIYTASSLQSGVPSRFSGSESGTDFTLTISSLQPEDFATYYCQQSYSTPLTFGGGTKVDIKGGGGSGGGGSGGGGSQVQLVQSGAEVKKPGASVKVSCKASGYTFTGYYMHWVRQAPGQGLEWMGWINPNSGGTNYAQKFQGRVTLTRDTSITTAYLELTSLTSDDTAVYYCARGDTGDFFDHWGQGTLVTVSS | 19800 | 1.6 | 0.6 | 55300
Anti-CLL-1 Binder Clone 42 (scFv, scFv (VL-linker-VH); not shown: FLAG tag) scFv: EIVLTQSPATLSLSPGERATLSCRASQSVSSYLAWYQQKPGQAPRLLIYDASNRATGIPDRFSGSGSGTDFTLTISRLEPEDFAVYYCQQYGSSPVTFGQGTKLEIKGGGGSGGGGSGGGGSQVQLVQSGAEVKKPGSSVKVSCKASGGTFSSYAISWVRQAPGQGLEWMGGIIPIFGTANYAQKFQGRVIMTTDTSTSTAHMELRSLRSDDTAVYYCARDADEFGAFDIWGQGTTVTVSS | 10400 | 2.2 | 1.5 | 29000
Anti-CLL-1 Binder Clone 11 (scFv, scFv (VL-linker-VH); not shown: FLAG tag) scFv: QSVLTQPASVSGSPGQSITISCTGTSSDVGASNSVSWYQRHPGKPPKLMIYDVSNRPSGISNRFSGSKSGNTASLTISGLQSEDEADYYCSSYTGSSTFVVFGGGTQLIILGGGGSGGGGSGGGGSEVQLVESGGGVVQPGGSLRLSCAASGFTFSSYWMSWVRQAPGKGLEWVANIRQDGSEKYYVDSVKGRFTISRDNAKNSLYLQMNSLRAEDAAVYYCAREQDTAMVAFDYWGQGTLVTVSS | 20500 | 0.2 | 1.4 | 60200
Anti-CLL-1 Binder Clone 1 (scFv, scFv (VL-linker-VH) from a fully human scFv phage library; not shown: FLAG tag) scFv: SYVLTQPPSVSVAPGQTARITCGGNNIGSKSVHWYQQKPGQAPVLVVYDDSDRPSGIPERFSGSNSGNTATLTISRVEAGDEADYYCQVWDSSSDHPVFGGGTQLIILGGGGSGGGGSGGGGSQVQLVQSGAEVKKPGSSVKVSCKASGGTFSSYAISWVRQAPGQGLEWMGRIIPILGIANYAQKFQGRVTITADESTSTAYMELSSLRSEDTAVYYCAREKDDILTGAYYYGMDVWGQGTTVTVSS | 18100 | 3.2 | 3.4 | 46300
Anti-CLL-1 Binder Clone 12 (scFv, scFv (VL-linker-VH); not shown: FLAG tag) scFv: DIQMTQSPSSLSASVGDRVTITCQASQDISNYLNWYQQKPGKAPKLLIYDASNLETGVPSRFSGSGSGTDFTLTISSPQPEDLATYYCQQANSFPFTFGQGTKVEIKGGGGSGGGGSGGGGSQVQLVQSGAEVKKPGSSVKVSCKASGYSFTRNDITWVRQANGRGLEWLGRLNPNNGDTVYAEVFQGRVAMTRDTSTDTAYMELASLKSDDTAVYFCARGFWSFDVWGQGTMVTVSS | 11800 | 0.2 | 3.7 | 59600
Anti-CLL-1 Binder Clone 10 (scFv, scFv (VL-linker-VH); not shown: FLAG tag) scFv: DIQMTQSPSFLSASVGDRVTITCRASQGISSYLAWYQQKPGKAPKLLIYSASSLQSGVPSRFSGSGSGTDFTLTISSLQPEDFATYYCQQSYNSPTFGQGTRLEIKGGGGSGGGGSGGGGSQVQLVQSGAEVKKPGASVKVSCKASGYTFTGYYMHWVRQAPGQGLEWMGWMNPNSGNTGYAQKFQGRVTMTRNTSISTAYLELTSLTSDDTAVYYCARGDTGDFFDHWGQGTLVTVSS | 24900 | 0.2 | 1.1 | 52100
Anti-CLL-1 Binder Clone 20 (VHH, also called 20 VH; VH clone 20; not shown: FLAG tag) VHH: QVQLVQSGGGLVQPGGSLRLSCAASDFSFSYYEMSWVRQAPGKGLEWVSTISGSGDSTYYADSVKGRFTISRDNTKNTLYLQMNTLRAEDTATYYCMTDGETWGTHRYTVYWGQGALVTVSS | 9110 |  | 4.7 | 27000
Anti-CLL-1 Binder Clone 2 (scFv, scFv (VL-linker-VH); not shown: FLAG tag) scFv: QSVLTQPLSVSVALGQTARITCGGNNIGSKNVHWYQQKAGQAPVLVIQRDSNRPSGIPERFSGSNSGNTATLTISRAQAGDEADYFCQVWDSNTYVFGTGTKLTVLGGGGSGGGGSGGGGSEVQLVESGGGLVKPGGSLRLSCAASGFTFSDYYMSWIRQAPGKGLEWVSYISSSGSTIYYADSVKGRFTISRDNAKNSLYLQMNSLRDEDTAVYYCARQSAEIVGAFDHWGQGTMVTVSS | 11100 | 1.8 | 0.9 | 50800
Anti-CLL-1 Binder Clone 4 (scFv, scFv (VL-linker-VH); not shown: FLAG tag) scFv: QSVVTQPPSVSAAPGQKVTISCSGSSPNIGKNYVSWYQQLPGTAPKLLIYDNNKRPSGIPDRFSGSKSGTSATLGITGLQTGDEADYYCGTWDSSLSGYVFGTGTKVTVLGGGGSGGGGSGGGGSQVQLVESGGGVVQPGRSLRLSCAASGFTFSSYGMHWVRQAPGKGLEWVAFISHDGSNKYYADSVKGRSTISRDNSKSTLFLQMNSLRDEDTAVYFCAREGQLTTSWDFFDYWGHGTLVTVSS | 11600 | 6.4 | 1.4 | 33600
